{"source": "paper PMC8627417", "about": "(Journal for Immunotherapy of Cancer, 2021)", "binders": {"B1": {"name": "chitinase 3-like 1 (CHI3L1) (natural protein)", "chain": "not shown"}}, "molecular_target": "receptor of advanced glycation end products (RAGE) (UniProt Q15109 23-404)", "sequence (Q15109 23-404)": "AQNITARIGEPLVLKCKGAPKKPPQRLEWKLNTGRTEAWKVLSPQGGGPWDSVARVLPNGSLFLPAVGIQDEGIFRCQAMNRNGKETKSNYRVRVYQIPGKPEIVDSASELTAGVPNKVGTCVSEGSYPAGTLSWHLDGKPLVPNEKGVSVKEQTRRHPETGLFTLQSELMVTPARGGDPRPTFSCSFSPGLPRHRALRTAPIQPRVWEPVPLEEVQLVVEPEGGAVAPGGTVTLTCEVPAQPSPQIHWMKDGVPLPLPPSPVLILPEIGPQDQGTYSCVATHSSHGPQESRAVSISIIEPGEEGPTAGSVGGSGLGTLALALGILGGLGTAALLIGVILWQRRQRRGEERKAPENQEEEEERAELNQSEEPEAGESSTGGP", "data": [{"binder": "B1", "values": [{"measurement": "Kd", "value": "~16", "unit": "nM"}]}]}
